Reference: US20050064518A1

How the values were obtained:
[1] = molecular target: monoclonal antibody 325.1; experiment: ELISA competition: shed CA 125/O772P at 25-fold excess against 325.1 binding to plate-bound O772P 3-repeat
[2] = molecular target: monoclonal antibody 117.1; experiment: flow cytometry competition (representative plot): shed CA 125/O772P against 117.1 binding to OVCAR-3 cells
monoclonal antibody 7A11 = experiment: ELISA competition: shed CA 125/O772P at 25-fold excess against 7A11 binding to plate-bound O772P 3-repeat
monoclonal antibody 8E3 = experiment: ELISA competition: shed CA 125/O772P at 25-fold excess against 8E3 binding to plate-bound O772P 3-repeat
monoclonal antibody 15C9 = experiment: ELISA competition: shed CA 125/O772P at 25-fold excess against 15C9 binding to plate-bound O772P 3-repeat
monoclonal antibody 8C3 = experiment: ELISA competition: shed CA 125/O772P at 25-fold excess against 8C3 binding to plate-bound O772P 3-repeat
[3] = molecular target: monoclonal antibody 654.1; experiment: ELISA competition: shed CA 125/O772P at 25-fold excess against 654.1 binding to plate-bound O772P 3-repeat
[4] = molecular target: monoclonal antibody 725.1; experiment: ELISA competition: shed CA 125/O772P at 25-fold excess against 725.1 binding to plate-bound O772P 3-repeat
monoclonal antibody 4E7 = experiment: ELISA competition: shed CA 125/O772P at 25-fold excess against 4E7 binding to plate-bound O772P 3-repeat
monoclonal antibody 8A1 = experiment: ELISA competition: shed CA 125/O772P at 25-fold excess against 8A1 binding to plate-bound O772P 3-repeat
monoclonal antibody 7C6 = experiment: ELISA competition: shed CA 125/O772P at 25-fold excess against 7C6 binding to plate-bound O772P 3-repeat
[5] = molecular target: monoclonal antibody 621.1; experiment: ELISA competition: shed CA 125/O772P at 25-fold excess against 621.1 binding to plate-bound O772P 3-repeat
monoclonal antibody 7G10 = experiment: ELISA competition: shed CA 125/O772P at 25-fold excess against 7G10 binding to plate-bound O772P 3-repeat
[6] = molecular target: monoclonal antibody 633.1; experiment: ELISA competition: shed CA 125/O772P at 25-fold excess against 633.1 binding to plate-bound O772P 3-repeat
monoclonal antibody 7F10 = experiment: ELISA competition: shed CA 125/O772P at 25-fold excess against 7F10 binding to plate-bound O772P 3-repeat
monoclonal antibody 16H9 = experiment: ELISA competition: shed CA 125/O772P at 25-fold excess against 16H9 binding to plate-bound O772P 3-repeat
monoclonal antibody 8G9 = experiment: ELISA competition: shed CA 125/O772P at 25-fold excess against 8G9 binding to plate-bound O772P 3-repeat
monoclonal antibody 8B5 = experiment: ELISA competition: shed CA 125/O772P at 25-fold excess against 8B5 binding to plate-bound O772P 3-repeat
monoclonal antibody 7H1 = experiment: ELISA competition: shed CA 125/O772P at 25-fold excess against 7H1 binding to plate-bound O772P 3-repeat
[7] = molecular target: monoclonal antibody 446.1; experiment: ELISA competition: shed CA 125/O772P at 25-fold excess against 446.1 binding to plate-bound O772P 3-repeat
M11 = experiment: flow cytometry competition (representative plot): shed CA 125/O772P against M11 binding to OVCAR-3 cells
monoclonal antibody 16C7 = experiment: ELISA competition: shed CA 125/O772P at 25-fold excess against 16C7 binding to plate-bound O772P 3-repeat
[8] = molecular target: monoclonal antibody 776.1; experiment: ELISA competition: shed CA 125/O772P at 25-fold w/w excess against antibody binding to plate-bound O772P 3-repeat
[9] = molecular target: monoclonal antibody 117.1; experiment: as above
[10] = molecular target: monoclonal antibody 368.1; experiment: as above
OC125 = experiment: as above
[11] = molecular target: monoclonal antibody 501.1; experiment: as above
Sequence of monoclonal antibody 501.1 (chain, as listed by the source, chain 1 of 2): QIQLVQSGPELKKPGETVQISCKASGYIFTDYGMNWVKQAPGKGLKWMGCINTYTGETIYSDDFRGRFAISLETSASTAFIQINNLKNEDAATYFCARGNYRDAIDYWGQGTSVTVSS
Sequence of monoclonal antibody 501.1 (chain, as listed by the source, chain 2 of 2): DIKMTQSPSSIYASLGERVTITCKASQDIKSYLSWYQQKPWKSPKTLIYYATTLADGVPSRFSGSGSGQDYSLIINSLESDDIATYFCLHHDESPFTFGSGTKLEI

Sequence of monoclonal antibody 117.1 (chain, as listed by the source, chain 1 of 2): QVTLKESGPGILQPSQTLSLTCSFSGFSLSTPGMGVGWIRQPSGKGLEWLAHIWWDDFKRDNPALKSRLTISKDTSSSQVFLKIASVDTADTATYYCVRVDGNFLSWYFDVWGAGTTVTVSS
Sequence of monoclonal antibody 117.1 (chain, as listed by the source, chain 2 of 2): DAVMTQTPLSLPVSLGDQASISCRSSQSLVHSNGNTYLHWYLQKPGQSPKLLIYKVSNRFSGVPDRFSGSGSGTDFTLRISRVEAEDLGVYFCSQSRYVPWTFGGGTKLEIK
Sequence of monoclonal antibody 368.1 (chain, as listed by the source, chain 1 of 2): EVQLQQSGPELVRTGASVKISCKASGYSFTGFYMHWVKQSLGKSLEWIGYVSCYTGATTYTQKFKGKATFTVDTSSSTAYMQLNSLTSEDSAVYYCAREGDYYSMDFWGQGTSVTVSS
Sequence of monoclonal antibody 368.1 (chain, as listed by the source, chain 2 of 2): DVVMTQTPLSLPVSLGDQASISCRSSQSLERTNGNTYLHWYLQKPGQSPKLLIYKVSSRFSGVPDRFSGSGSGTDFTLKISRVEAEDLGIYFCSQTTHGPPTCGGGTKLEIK
Sequence of monoclonal antibody 16H9 (chain, as listed by the source, chain 1 of 2): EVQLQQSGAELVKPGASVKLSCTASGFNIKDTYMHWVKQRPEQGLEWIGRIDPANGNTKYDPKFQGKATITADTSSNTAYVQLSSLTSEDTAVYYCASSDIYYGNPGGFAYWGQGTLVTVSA
Sequence of monoclonal antibody 16H9 (chain, as listed by the source, chain 2 of 2): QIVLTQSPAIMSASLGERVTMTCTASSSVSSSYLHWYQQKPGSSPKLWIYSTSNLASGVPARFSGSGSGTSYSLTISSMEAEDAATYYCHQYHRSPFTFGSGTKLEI
Sequence of monoclonal antibody 776.1 (chain, as listed by the source, chain 1 of 2): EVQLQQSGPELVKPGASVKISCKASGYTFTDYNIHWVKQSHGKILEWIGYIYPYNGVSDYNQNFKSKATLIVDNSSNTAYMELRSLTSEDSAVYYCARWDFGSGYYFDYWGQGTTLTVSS
Sequence of monoclonal antibody 776.1 (chain, as listed by the source, chain 2 of 2): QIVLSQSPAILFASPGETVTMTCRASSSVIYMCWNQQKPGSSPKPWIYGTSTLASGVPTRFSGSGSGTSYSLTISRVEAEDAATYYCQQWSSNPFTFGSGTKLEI
Sequence of OC125 (chain, as listed by the source, chain 1 of 2): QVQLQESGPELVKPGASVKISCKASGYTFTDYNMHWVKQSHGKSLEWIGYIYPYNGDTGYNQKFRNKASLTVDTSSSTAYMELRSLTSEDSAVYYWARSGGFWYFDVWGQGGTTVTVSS
Sequence of OC125 (chain, as listed by the source, chain 2 of 2): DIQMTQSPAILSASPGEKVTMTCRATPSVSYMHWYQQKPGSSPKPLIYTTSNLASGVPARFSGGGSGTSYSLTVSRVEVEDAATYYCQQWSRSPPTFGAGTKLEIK
Sequence of monoclonal antibody 725.1 (chain, as listed by the source, chain 1 of 2): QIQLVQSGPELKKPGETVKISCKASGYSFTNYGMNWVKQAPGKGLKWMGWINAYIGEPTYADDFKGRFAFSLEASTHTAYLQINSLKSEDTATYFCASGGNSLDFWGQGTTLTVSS
Sequence of monoclonal antibody 725.1 (chain, as listed by the source, chain 2 of 2): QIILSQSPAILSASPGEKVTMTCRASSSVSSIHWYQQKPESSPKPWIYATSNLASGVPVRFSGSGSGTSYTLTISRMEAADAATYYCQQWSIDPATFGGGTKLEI

In the case of “shed CA 125/O772P polypeptide, Q8WXI7 1-14401”, the % inh. binding [1] is reported as 2%, the IC50 [2] is reported as > 1000 µg/mL and the % inh. binding (monoclonal antibody 7A11) is reported as 5%. The % inh. binding (monoclonal antibody 8E3) was 4%, the % inh. binding (monoclonal antibody 15C9) was 5% and the % inh. binding (monoclonal antibody 8C3) was 5%. It also gave a % inh. binding [3] of 9%, a % inh. binding [4] of 7% and a % inh. binding (monoclonal antibody 4E7) of 7%. The % inh. binding (monoclonal antibody 8A1) was 8%, the % inh. binding (monoclonal antibody 7C6) was 2% and the % inh. binding [5] was 2%. It also gave a % inh. binding (monoclonal antibody 7G10) of 3%, a % inh. binding [6] of 7% and a % inh. binding (monoclonal antibody 7F10) of 6%. The % inh. binding (monoclonal antibody 16H9) was 0%, the % inh. binding (monoclonal antibody 8G9) was 7% and the % inh. binding (monoclonal antibody 8B5) was 6%. It also gave a % inh. binding (monoclonal antibody 7H1) of 4%, a % inh. binding [7] of 7% and an IC50 (M11) of 3 µg/mL. The % inh. binding (monoclonal antibody 16C7) was 3%, the percent inhibition of binding [8] was 17% and the percent inhibition of binding [9] was 11%. For the same substance, the percent inhibition of binding [10] was 0%, the percent inhibition of binding (OC125) was 95% and the percent inhibition of binding [11] was 15%.
